# Laboratory results published in IntAct's records for PubMed 19081057.
# B1: E3 ubiquitin-protein ligase pellino homolog 2 (Homo sapiens), Q9HAT8 (parent)
# chain: MFSPGQEEHCAPNKEPVKYGELVVLGYNGALPNGDRGRRKSRFALYKRPKANGVKPSTVHVISTPQASKAISCKGQHSISYTLSRNQTVVVEYTHDKDTDMFQVGRSTESPIDFVVTDTISGSQNTDEAQITQSTISRFACRIVCDRNEPYTARIFAAGFDSSKNIFLGEKAAKWKNPDGHMDGLTTNGVLVMHPRGGFTEESQPGVWREISVCGDVYTLRETRSAQQRGKLVESETNVLQDGSLIDLCGATLLWRTADGLFHTPTQKHIEALRQEINAARPQCPVGLNTLAFPSINRKEVVEEKQPWAYLSCGHVHGYHNWGHRSDTEANERECPMCRTVGPYVPLWLGCEAGFYVDAGPPTHAFTPCGHVCSEKSAKYWSQIPLPHGTHAFHAACPFCATQLVGEQNCIKLIFQGPID
# Variants of: B1
# Settings: with irak1_human IRAK1, P51617
# Chain of irak1_human IRAK1, P51617 (P51617 whole entry, looked up): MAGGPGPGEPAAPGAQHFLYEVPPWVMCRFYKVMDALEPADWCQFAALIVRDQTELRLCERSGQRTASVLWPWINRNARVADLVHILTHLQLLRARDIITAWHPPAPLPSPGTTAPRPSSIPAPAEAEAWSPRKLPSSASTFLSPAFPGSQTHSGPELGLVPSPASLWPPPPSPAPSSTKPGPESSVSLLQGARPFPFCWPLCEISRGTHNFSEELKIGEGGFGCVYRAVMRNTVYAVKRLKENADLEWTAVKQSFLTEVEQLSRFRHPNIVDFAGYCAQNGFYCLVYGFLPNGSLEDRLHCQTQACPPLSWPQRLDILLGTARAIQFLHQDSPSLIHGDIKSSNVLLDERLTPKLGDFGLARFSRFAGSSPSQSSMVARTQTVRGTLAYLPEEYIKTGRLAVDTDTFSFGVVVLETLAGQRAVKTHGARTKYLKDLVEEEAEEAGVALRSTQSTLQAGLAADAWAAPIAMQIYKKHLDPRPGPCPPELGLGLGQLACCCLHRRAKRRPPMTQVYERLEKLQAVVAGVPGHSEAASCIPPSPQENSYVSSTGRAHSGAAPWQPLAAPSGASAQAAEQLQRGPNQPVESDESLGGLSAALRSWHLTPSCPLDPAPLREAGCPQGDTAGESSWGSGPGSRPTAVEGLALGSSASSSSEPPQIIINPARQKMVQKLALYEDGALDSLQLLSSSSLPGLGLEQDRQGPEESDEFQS
row,effect of a mutation on the interaction,Variant
1,disrupting interaction,MFSPGQEEHCAPNKEPVKYGELVVLGYNGALPNGDRGRRKSRFALYKRPKANGVKPSTVHVISTPQASKAISCKGQHSISYTLSRNQTVVVEYTHDKDTDMFQVGRSTESPIDFVVTDTISGSQNTDEAQITQSTISRFACRIVCDRNEPYTARIFAAGFDSSKNIFLGEKAAKWKNPDGHMDGLTAAGVLVMHPRGGFTEESQPGVWREISVCGDVYTLRETRSAQQRGKLVESETNVLQDGSLIDLCGATLLWRTADGLFHTPTQKHIEALRQEINAARPQCPVGLNTLAFPSINRKEVVEEKQPWAYLSCGHVHGYHNWGHRSDTEANERECPMCRTVGPYVPLWLGCEAGFYVDAGPPTHAFTPCGHVCSEKSAKYWSQIPLPHGTHAFHAACPFCATQLVGEQNCIKLIFQGPID [T187A;N188A]
2,disrupting interaction,MFSPGQEEHCAPNKEPVKYGELVVLGYNGALPNGDRGRRKSRFALYKRPKANGVKPSTVHVISTPQASKAISCKGQHSISYTLSRNQTVVVEYTHDKDTDMFQVGASTESPIDFVVTDTISGSQNTDEAQITQSTISRFACRIVCDRNEPYTARIFAAGFDSSKNIFLGEKAAKWKNPDGHMDGLTTNGVLVMHPRGGFTEESQPGVWREISVCGDVYTLRETRSAQQRGKLVESETNVLQDGSLIDLCGATLLWRTADGLFHTPTQKHIEALRQEINAARPQCPVGLNTLAFPSINRKEVVEEKQPWAYLSCGHVHGYHNWGHRSDTEANERECPMCRTVGPYVPLWLGCEAGFYVDAGPPTHAFTPCGHVCSEKSAKYWSQIPLPHGTHAFHAACPFCATQLVGEQNCIKLIFQGPID [R106A]
